B1: TCN-526 (5084_C17) (antibody, V domains shown)
VH: EVLMVESGGGLVQPGGSVRLSCVASGFSFSSHWMTWVRQAPGKGLEWVANIEDDGGDKYYVDSVKGRFIISRDNAKNSVYLQMNSLRAEDTAVYFCARGSGSSDRSDYDPHYYYYLDVWGKGATVTVSS
VL: DIQLTQSPSSLSASVGDRVTITCRASQSISRYLNWYQQKPGKAPKLLLFAASTLLDGVPSRFSGSGSGTDFTLTISSLQPEDFATYYCQRNHSPSWTFGQGTRVEIK
B2: TCN-527 (5086_C06) (antibody, V domains shown)
VH: QVQLQESGPGLVKPSETLSLNCAVSGGSISNYYWSWIRQPPGKGLEWIGYISYNGRPKYNPSLTSRVTISVDTSKDQFSLELRSVTAADTALYYCARETRFGELLSPYDAFEIWGQGTMVTVSS
VL: DIQMTQSPSSLSASVGDRVTMTCRASQNIRSYLNWYQQRPGTAPKLLIYAASTLHSGVPSRFSGGGSGTDFTLTINNLQPEDFASYYCQQSYDNPQTFGQGTKVEIK
B3: TCN-528 (5087_P17) (antibody, V domains shown)
VH: QVQLVQSGSEVKKPGASVKVSCKASGYTFTNYDINWIRQAPGQGLEWMGWINPNSGTTGSAQRFQGRVTITVDTSITTVYMELSSLRSDDTAIYYCARGRELLRLQHFLTDSQSERRDCFDPWGQGTLVTVSS
VL: DIQMTQSPSSLSASVGDRVTITCRANQDIGIYLNWYQQNPGKVPKLLLHGASSLQGGVPSRFSASGSGTDFTLTIHSLQPEDLATYYCQQSRRLPYTFGQGTRVELK
B4: TCN-529 (5297_H01) (antibody, V domains shown)
VH: QITLRESGPTLVKPTQTLTLTCTFSGFSLSTNGVNVGWIRQPPGKALEWLALIYWDDDKRYSPSLKRRLTITKDTSKNQVVLTLTNMDPVDTATYYCAHRPDFYGDFEYWGPGTLVTVSS
VL: QSALTQPASVSGSPGQSITISCTGSSSDIGGYNYVSWYQQHPGKAPKLMIYDVNNRPSGVSNRFSGSKSGNTASLTISGLQTDDEADYYCGSYTGSPHYVFGTGTKVTVL
B5: TCN-530 (5248_H10a) (antibody, V domains shown)
VH: QVQLVQSGAEVRKPGSSVKVSCKASGGPFMSYAIGWVRQAPGQGLEWMGGINPVFGRPHYAQKFQGRVTIATDDSTKTSYMELSSLTSEDTGMYYCASRYSRSSPGTFESWGQGTLVTVSS
VL: EIVMTQFPATLSVSPGERVTLSCRASQSVSNNLAWYQQKPGQPPRLLIYDASTRATGVPAKFSGTGSGTEFTLSISSLQSEDFAVYYCQQYHNWPPSYSFGLGTKLEIK
B6: TCN-531 (5091_H13) (antibody, V domains shown)
VH: EVQLVESGGDLVQPGRSLKLSCTGSGFTFGDYGVTWVRQAPGKGLEWVGFIRTRPWGGTADTAASVKGRFTISRDDSKSLAYLQMNSLKTEDTAVYYCCRDAPPNVEVASMTNWYFDLWGRGTLVTVSS
VL: DIQLTQSPSSLSASVGDRVTITCRASQGILNCLAWYQQKPGKVPNLLMYAASTLQSGVPSRFSGSGFGTDFTLTISSLQPEDVATYYCQTYGGVSTFGGGTKVEIR
B7: TCN-532 (5262_H18) (antibody, V domains shown)
VH: QVQLQESGPGLVKPSETLSLTCTVSGGSVSSETYYWSWIRQPPGKGLEWIGYIYYIGNTDYRPSLKSRVTISLDTSKNQFSLKLSSVTAADTAVYYCARGAYYDSSGYPAFYIWGQGTMVTVSS
VL: QSVLTQPPSVSGAPGQRVTISCTGSSSNIGSDYDVHWYKQLPGTAPKLLIFGNSNRPSGVPDRFSGSKSGTSASLAITGLQAEDEADYYCQSYDSSLSGFHVFGSGTKVTVL
B8: TCN-533 (5256_A17) (antibody, V domains shown)
VH: QVQLVQSGADVKKPGSSVTVSCKASGGSFSNYGINWVRQAPGQGLEWMGGIIPLINAPNYAPKFQGRVTITADMFSNIVSLQLTSLRTDDTAVYYCARRKMTTAIDYWGQGTLVTVSS
VL: QPVLSQPPSASASLGASVTLTCTLSSGFDNYQVAWYQQRPGKGPRFVMRVGNGGNVASKGDGIPDRFSVSGSGLNRYLTIKNIQEDDESDYYCGADHGSGNNFVSPYVFGGGTKLTVL
B9: TCN-534 (5249_B02) (antibody, V domains shown)
VH: QVQLVQSGAEVKKPGSSVKVSCRESGGTFNGYTITWVRQAPGQGLEWMGGIIPMMGTVNYAQKLQGRVTITTDYFTKTAYMDLNNLRSEDTAMYYCVKIRYTGQQLLWGQGTLVTVSS
VL: DIQMTQSPSTLSASIGDRVTITCRASQSIASWLAWYQQKPGKAPKLLIYEAVNLESGVPSRFSGSGSGTDFTLTISSLQPDDFATYFCQHYGTISQTFGGGTKVEIK
B10: TCN-535 (5246_P19) (antibody, V domains shown)
VH: QVQLVQSGSEVKKPGTSVKVSCTASGSVFTNYGISWVRQAPGQGLEWMGGIIPLFGAAKYAQKFQGRVTITADESTKTVYMELSRLTSKDTAIYFCAKAPRVYEYYFDQWGQGTPVTVSS
VL: EIVLTQSPGTLSLSPGERATLSCRASQSVSSSQLAWYQQKPGQAPRLIIYGASTRATGIPDRFSGSGSGTDFTLTIGRLEPEDFAVFFCQQYSTSPPTFGQGTKVDFK
B11: TCN-522 (3212_I12) (antibody, V domains shown)
VH: QVQLQQWGAGLLKPSETLSLTCTVSGGSLTDYSWNWIRQPPGKGLEWIGDTLHNGYTNYNPSLRGRVSISIDTSKNQVSLRLTSVTAADTALYYCARGSGGYGGFDYFGKLRTWDFWGQGTLVTVSS
VL: DIQLTQSPSSLSASVGDRVTITCRASQGIRNDLGWYQQKPGNAPKRLIFGASSLQSGVPSRFSGSGSGTEFTLTISSLQPEDFATYYCLQHNSYPYTFGQGTKLEIK
B12: TCN-536 (5095_N01) (antibody, V domains shown)
VH: QVQLQQWGAGLLKPSETLSLTCAVYGGSFSVSGYYWSWIRQPPGRGLEWIGEISHGGSTNYNPSLKSRVTISVDTTKNQFSLRLSSVTAADTAVYYCARGTDPDTEVYCRVGNCAAFDYWGQGSLVTVSS
VL: EIILAQSPGTLSLSPGERATLSCRASQFVSTRSLAWYQQRPGQAPRLLIYGASSRATGIPDRFSGSGSGTDFTLTISRLEPEDFAVYYCQHYGYSPRYAFGQGSKVEIK
B13: TCN-537 (3194_D21) (antibody, V domains shown)
VH: QVQLQQWGSGLLKPSETLSLTCAVYGGSFRDDYWTWIRQPPGKGLEWIGEINHSGRTNYNPSLKSRVTISVDTSLKQFSLKVISVTAADTAVYYCARGTSHVSRYFDWLPPTNWFDPWGQGTQVTVSS
VL: DIVLTQSPGTLSLSPGERATLSCRASQSVSSSYLAWYQQKPGQAPRLVMYGAATRATGIPDRFSGSGSGPDFTLTISRLEPEDFAMYYCQQYGNSPITFGQGTRLEIK
B14: TCN-538 (3206_O17) (antibody, V domains shown)
VH: QITLKESGPTLVKPTQTLTLTCVFSGFSLSITGVRVGWIRQPPGKALEWLALISWDDEKHYSPSLQSRLTITKDTSKNQVVLTMTNLDPVDTATYYCARSTDRGHVLRYFGWMLPGDAFDVWGQGTMVTVSS
VL: DIVMTQSPDFLPVSLGERATINCKSSQRVLYSSNNKNYLAWYQLKPGQPPKLIIYWASTRESGVPDRFSGSGSGTEFTLTISSLQAEDVAVYYCQQYYSRPYTFGQGTKLEIK
B15: TCN-539 (5056_A08) (antibody, V domains shown)
VH: QVQLVESGGGVVQPGRSLRLSCAASEITFITYAMHWVRQAPGKGLEWVALISDDGSNKFYADSVKGRFTISRDNSKNTLYLQMNSLRAEDTAAYYCAREGVYFDSGTYRGYFDYWGQETLVTVSS
VL: EIVLTQSPATLSLSPGERATLSCRASQSVSSYLAWYQQKPGQAPRLLIYDASNRATGIPARFSGSGSGTDFTLTISSLEPEDFAVYYCQQRSHWPPITFGQGTRLEIK
B16: TCN-540 (5060_F05) (antibody, V domains shown)
VH: QVQLVQSGGGVVQPGRSLRLSCAASGFTFSSYAMHWVRQAPGKGLEWVAIISYDGNDQYYTDSVKGRFTISRDSSKVYLQMHRLRPEDTAVYYCAKEFETSGYFHGSFDYWGQGILVTVSS
VL: QSALTQPASVSGSPGQSITISCTGTSSDVGGYNYVSWYQQHPGKAPKLLIYEVTNWPSGVSNRFSGSKSGNTASLTISGLQAEDEADYYCSSYAGSSTWVFGGGTRVTVL
B17: TCN-542 (5079_A16) (antibody, V domains shown)
VH: QVQLQESGPGLVKPSQTLSLTCTVSGGSISSGNYYWNWVRQHPGKGLEWIGYIYYRGSTFYNPSLKSRVTISIDTSKNQFSLRLSSVTAADTAVYYCAKDTRSSLDNYQYGMDVWGQGTTVTVSS
VL: QTVVTQEPSLTVSPGGTVTLTCASSTGAVTSSYFPNWFQQKPGQAPRPLIYSTTIRHSWTPARFSGSLLGGKAALTLSGVQPEDEADYYCLLYSGGDPVAFGGGTKLTVL
B18: TCN-543 (5081_G23) (antibody, V domains shown)
VH: QVHLVQSGAEVRKPGDSVKVSCKTSGYTFSTYPVAWVRQVPGQGLEWMGWISTYNGNTNFAQNFQGRVTLTTDTTTNTAYMEVRSLKFDDTAVYYCARVEGSYRDFWNNQNRFDPWGQGTLVTVSS
VL: SYVLTQPPSVSVAPGQTARISCGGSNIGGKSVHWYQQKPGQAPVLVVYDDSGRPSGIPERFSGSNSGDTATLTISRVEAGDEADYFCQVWDNFGGVFGTGTKVTVL
B19: TCN-544 (5082_A19) (antibody, V domains shown)
VH: QVQLQESGPGLVKPSETLSLTCTVSRGSIGHYFWSWIRQPPGKGLEWIGYISYSGSTKYNPSLRSRVTISVDTSKNQFSLNLNSVTATDTALYYCAREDYDILTGAGPGMEVWGQGTTVTVSS
VL: QSMLTQPPSASGTPGQRVTISCSGSSSNIGSNTVNWFKHLPGTAPKLLIYRNDLRPSGVPDRFSGSKSGTSASLAISGLQSEDEADYYCATWDDSLNGFYVFGTGTKVTVL
B20: TCN-545 (5082_I15) (antibody, V domains shown)
VH: QVQLQQWGAGLLKPSETLSLSCAVFGGSFSDYYWTWIRQPPGKGLEWIGEIKHSGRTNYNPSLESRVTISVDTSKNQFSLKLSSVTAADTAIYYCARGTDPDTEGYCRSGSCSAFDFWGQGTLVTVSS
VL: EIVLTQSPGTLSLSPGERATLSCRASHFVNYRSLAWYQQTPGQVPRLLIYGASTRATGIPDRFSGSGSGTDFTLTISRLEPEDFAVYFCQQYGGSPRYTFGQGTRLEIK
B21: TCN-546 (5089_L08) (antibody, V domains shown)
VH: QVQLQQWGAGLLKPSETLSLTCGVYGGSLSDYYWSWIRQPPGKGLEWIGEINHSGGTNYNPSLKRRVTISVDTSKKQFSLKMNSVTAADTAVYYCARGTDPDTEVYCRAGNCAAFDFWGQGTLVTVSS
VL: EIVLTQSPGTLSLSPGERATLSCRASHFVIGRAVAWYQQKPGQAPRLLIYGASSRATGIPDRFSGSGSGTDFTLTISRLETEDFAVFYCQHYGSSPRYAFGQGTKLEIK

Biological target: Hemagglutinin of influenza A/Solomon Islands/3/06 (H1N1) on whole virions (Influenza A virus A/Solomon …)
Assay: cell-based or functional assay

First: B1
Second: B2
The “% Neutralization” value of the first is lower: 0% for the first, 12% for the second.

B3 and B4 are the same in “% Neutralization” value: 0% for the first, 0% for the second.

Going from B5 to B6, the “% Neutralization” value rises from 64% to 65%.

Going from B7 to B8, the “% Neutralization” value rises from 11% to 56%.

Going from B9 to B10, the “% Neutralization” value falls from 86% to 82%.

Compared with B11, B12 is higher in “% Neutralization” value: 33% for the first, 75% for the second.

Compared with B13, B14 is lower in “% Neutralization” value: 89% for the first, 35% for the second.

Compared with B15, B16 is higher in “% Neutralization” value: 97% for the first, 100% for the second.

First: B17
Second: B18
The “% Neutralization” value of the first is lower: 98% for the first, 100% for the second.

First: B19
Second: B20
The “% Neutralization” value of the first is lower: 95% for the first, 98% for the second.

B21 was tested, and the “% Neutralization” value was 0%.
